Data published in article doi:10.1101/2024.10.26.620377 (bioRxiv, 2024).
One block for each molecule: values may come before it.

Columns and labels:
[1] = molecular target: GPR52 H8-A mutant, receptor-RLuc8 (human) (UniProt Q9Y2T5)
[2] = molecular target: GPR52 H8-A mutant, receptor-RLuc8 (human) (UniProt Q9Y2T5); assay: FRET or BRET
[3] = molecular target: T1, GPR52 (wild-type), receptor-RLuc8 BRET biosensor (human, UniProt Q9Y2T5 1-361); assay: FRET or BRET
[4] = molecular target: T1, GPR52 (wild-type), receptor-RLuc8 BRET …; assay: FRET or BRET; remark: listed apart in the source

Tango assay, constitutive β-arrestin2 recruitment, % Emax relative to wild-type [1]: 300 % Emax
% Emax of BRET, unliganded, relative to wild-type [2]: 451 % Emax
Molecule: β-arrestin2-GFP2 (from UniProt P32121 1-409) (natural protein)

% Emax of BRET, agonist-induced, relative to the GLP-1R full response [3]: 19.5 % Emax
% Emax of BRET, agonist-induced, relative to wild-type [2]: 470 % Emax
% Emax of BRET, unliganded, relative to the GLP-1R full response [4]: 5.1 % Emax
B1: β-arrestin1-GFP2 (natural protein)
chain: MGDKGTRVFKKASPNGKLTVYLGKRDFVDHIDLVDPVDGVVLVDPEYLKERRVYVTLTCAFRYGREDLDVLGLTFRKDLFVANVQSFPPAPEDKKPLTRLQERLIKKLGEHAYPFTFEIPPNLPCSVTLQPGPEDTGKACGVDYEVKAFCAENLEEKIHKRNSVRLVIRKVQYAPERPGPQPTAETTRQFLMSDKPLHLEASLDKEIYYHGEPISVNVHVTNNTNKTVKKIKISVRQYADICLFNTAQYKCPVAMEEADDTVAPSSTFCKVYTLTPFLANNREKRGLALDGKLKHEDTNLASSTLLREGANREILGIIVSYKVKVKLVVSRGGLLGDLASSDVAVELPFTLMHPKPKEEPPHREVPENETPVDTNLIELDTNDDDIVFEDFARQRLKGMKDDKEEEEDGTGSPQLNNR
